Substitutions are numbered along the chain they refer to. Read-outs that look alike come from different tables or passages of the source.
How the values were obtained:
Assay in all cases: SPR BIAcore binding of STRADα to immobilised MO25α
MO25α (R227A/M260A) = molecular target: T1, MO25α (R227A/M260A) (Homo sapiens, UniProt Q9Y376, M260A/R227A); conditions: even in the presence of ATP
T1 construct: wild-type and mutant forms of STRADα (residues 54–431) and MO25α (residues 1–341) were expressed individually as GST fusion proteins in E. coli; GST (cleaved yes); made in house; host or cells: E. coli
T1 sequence (Q9Y376 whole entry R227A/M260A, one chain of several, the tested form may be a part): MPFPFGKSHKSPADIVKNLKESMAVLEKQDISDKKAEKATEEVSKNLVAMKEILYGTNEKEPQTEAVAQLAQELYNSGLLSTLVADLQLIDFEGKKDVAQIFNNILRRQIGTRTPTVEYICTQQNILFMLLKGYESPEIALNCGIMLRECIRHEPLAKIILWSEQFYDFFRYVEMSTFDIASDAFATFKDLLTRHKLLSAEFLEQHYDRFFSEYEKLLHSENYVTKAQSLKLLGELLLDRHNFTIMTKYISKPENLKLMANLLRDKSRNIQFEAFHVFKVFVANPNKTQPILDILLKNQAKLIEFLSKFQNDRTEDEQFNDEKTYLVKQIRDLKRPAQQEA
Procedure: (§1) SPR measurements were performed using a BIAcore T100 instrument. Wild-type and mutant forms of MO25α were immobilized on a CM5 sensor chip using standard amine-coupling chemistry, and 10 mM HBS (pH 7.4) was used as the running buffer. The carboxymethyl dextran surface was activated with a 7-min injection of a 1∶1 ratio of 0.4 M 1-ethyl-3-(3-dimethylaminopropyl) carbodiimide hydrochloride (EDC)/0.1 M N-hydroxy succinimide (NHS). MO25α (5–7 µM) was coupled to the surface with a 1-min injection of protein diluted in 10 mM sodium acetate (pH 5.5). Remaining activated groups were blocked with a 7-min injection of 1 M ethanolamine (pH 8.5). MO25α was immobilised on three flow cells of a CM5 chip at densities 1,700–2,500 RU performed at 25°C, leaving one flow cell as a reference to subtract any possible nonspecific binding.
(§2) STRADα was prepared in running buffer containing 50 mM Tris (pH 7.8), 50 mM NaCl, 270 mM sucrose, 1 mM DTT, 0.005% P20, and 0.1 mg/ml BSA in the presence/absence of 100 µM ATP and 1 mM MgCl2, and injected over all four surfaces at nine concentrations of a 3-fold concentration series (5 µM to […]). Each concentration was injected in duplicate over all surfaces. Association was measured for 60 s at a flow rate of 50 µl/min, and dissociation was measured for 3 min. STRADα dissociated completely from the MO25α surfaces, thus eliminating the need for a regeneration step.
(§3) Data were analysed using Scrubber 2 (BioLogic Software) and CLAMP software. Data were double referenced to the reference surface to subtract any possible nonspecific binding and to the blank buffer injections to subtract drift of the target from surface. Data were fitted to a 1∶1 or 2∶1 binding site model where appropriate. Kinetic association (k a) and dissociation rate (k d) constants were separately determined from the BIAcore sensorgrams, and equilibrium dissociation constants (K d) were calculated as: K d1 = k d1/k a1 and K d2 = k d2/k a2. Equilibrium constants were also independently calculated from a saturation binding curve, by fitting the measured response (R) from specific binding to the following equation: R = (R max1[STRAD]/([STRAD]+K d1))+(R max2[STRAD]/([STRAD]+K d2)), where R max1 and R max2 are the relative maximal changes in response for sites 1 and 2, respectively, and K d1 and K d2 are the equilibrium dissociation constants for sites 1 and 2, respectively. Dose-response curves for calculating the Hill slope (H) of the data were fitted with the following equation: R = minimum+(maximum−minimum)/(1+10^((logEC50−[STRAD])×H)) using GraphPad-PRISM software.

MO25α (WT) = molecular target: T2, MO25α (WT) (Homo sapiens, UniProt Q7RTN6+Q9Y376)
T2 construct: wild-type and mutant forms of STRADα (residues 54–431) and MO25α (residues 1–341) were expressed individually as GST fusion proteins in E. coli; GST (cleaved yes); made in house; host or cells: E. coli (STRADα: BL21(DE3)pLysS, co-expressed with MO25α and then separated from it)
T2 sequence (Q9Y376 1-341): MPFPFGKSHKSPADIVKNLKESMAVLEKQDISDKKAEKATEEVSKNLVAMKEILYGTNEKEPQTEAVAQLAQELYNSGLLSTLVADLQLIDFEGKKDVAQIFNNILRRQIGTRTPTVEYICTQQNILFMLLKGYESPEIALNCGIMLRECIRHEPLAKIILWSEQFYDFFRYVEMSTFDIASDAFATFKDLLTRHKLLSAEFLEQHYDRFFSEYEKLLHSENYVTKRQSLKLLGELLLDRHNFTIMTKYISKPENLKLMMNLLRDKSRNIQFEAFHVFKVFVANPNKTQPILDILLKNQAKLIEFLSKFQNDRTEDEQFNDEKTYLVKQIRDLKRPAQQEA
T2 sequence (Q7RTN6 59-431): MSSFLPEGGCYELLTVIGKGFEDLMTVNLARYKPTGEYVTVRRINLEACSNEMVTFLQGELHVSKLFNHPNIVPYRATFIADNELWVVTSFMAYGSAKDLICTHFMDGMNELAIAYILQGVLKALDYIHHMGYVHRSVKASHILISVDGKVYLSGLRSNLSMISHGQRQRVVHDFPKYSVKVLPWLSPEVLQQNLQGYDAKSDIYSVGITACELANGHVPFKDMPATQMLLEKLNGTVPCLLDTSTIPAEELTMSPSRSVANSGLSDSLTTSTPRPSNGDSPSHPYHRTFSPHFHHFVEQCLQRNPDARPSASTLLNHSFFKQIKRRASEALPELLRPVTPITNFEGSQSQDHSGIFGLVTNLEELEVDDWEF
Procedure: as §1, §2, §3

MO25α (M260A) = molecular target: T3, MO25α (M260A) (Homo sapiens, UniProt Q7RTN6+Q9Y376, M260A)
T3 construct: wild-type and mutant forms of STRADα (residues 54–431) and MO25α (residues 1–341) were expressed individually as GST fusion proteins in E. coli; GST (cleaved yes); made in house; host or cells: E. coli
T3 sequence (Q9Y376 1-341 M260A): T2 sequence (Q9Y376 1-341) with M260A
T3 sequence (Q7RTN6 59-431): T2 sequence (Q7RTN6 59-431)
Procedure: as §1, §2, §3

MO25α (R227A) = molecular target: T4, MO25α (R227A) (Homo sapiens, UniProt Q7RTN6+Q9Y376, R227A)
T4 construct: wild-type and mutant forms of STRADα (residues 54–431) and MO25α (residues 1–341) were expressed individually as GST fusion proteins in E. coli; GST (cleaved yes); made in house; host or cells: E. coli
T4 sequence (Q9Y376 1-341 R227A): T2 sequence (Q9Y376 1-341) with R227A
T4 sequence (Q7RTN6 59-431): T2 sequence (Q7RTN6 59-431)
Procedure: as §1, §2, §3

B1: STRADα: STRADα pseudokinase (residues 59–431), His tag removed, analyte injected over immobilised MO25α in SPR (protein)
chain: T2 sequence (Q7RTN6 59-431)
modifications: left off: His6 with TEV site (…), N-terminal, cleaved
notes: STRADα pseudokinase (residues 59–431), His tag removed, analyte injected over immobilised MO25α in SPR
For B1, the “interaction with STRADα” value (MO25α (R227A/M260A)) was “failed to interact”, the Kd (MO25α (WT); + 0.1 mM ATP, Kd = kd/ka, read-out: Kd1) was 2.5 µM and the kd1 (MO25α (WT); + ATP + Mg2+) was 0.43 (1.4 × 10−3) s−1. The kd2 (MO25α (WT); + ATP + Mg2+) was 0.04 (8.8 × 10−5) s−1, the Hill slope (MO25α (WT); in the presence of ATP, two-site binding) was 0.4 and the Kd (MO25α (WT); in the presence of ATP, read-out: second binding constant (Kd2)) was 0.012 µM. For the same molecule, the kd1 (MO25α (WT); no ATP) was 0.63 (3.0 × 10−3) s−1, the Kd (MO25α (WT); no ATP, Kd = kd/ka, read-out: Kd1) was 3.8 µM and the kd1 (MO25α (M260A); + ATP + Mg2+) was 0.43 (1.7 × 10−3) s−1. For the same molecule, the kd2 (MO25α (M260A); + ATP + Mg2+) was 0.05 (2.3 × 10−4) s−1, the kd1 (MO25α (M260A); no ATP) was 0.92 (3.0 × 10−3) s−1 and the kd1 (MO25α (R227A); + ATP + Mg2+) was 0.72 (2.0 × 10−3) s−1. The “binding of STRADα observed by SPR” value (MO25α (R227A); in the absence of ATP) was “virtually abolished binding”.
